Test results as given in US20250043020A1.

Key:
[1] = target: human Ankyrin Repeat Domain-Containing Protein 30A (NY-BR-1), full-length, on cells (human) (UniProt Q9BXX3); assay: flow cytometry on NY-BR-1 transfected Bosc23 cells; PE anti-mouse Fcγ subclass I secondary
[2] = target: human Ankyrin Repeat Domain-Containing Protein 30B (NY-BR-1.1), full-length, on cells (human) (UniProt Q9BXX2); assay: flow cytometry on NY-BR-1.1 transfected Bosc23 cells; PE anti-mouse Fcγ subclass I secondary
Sequence of UniProt Q9BXX2 (Q9BXX2 whole entry, the tested form may be a part): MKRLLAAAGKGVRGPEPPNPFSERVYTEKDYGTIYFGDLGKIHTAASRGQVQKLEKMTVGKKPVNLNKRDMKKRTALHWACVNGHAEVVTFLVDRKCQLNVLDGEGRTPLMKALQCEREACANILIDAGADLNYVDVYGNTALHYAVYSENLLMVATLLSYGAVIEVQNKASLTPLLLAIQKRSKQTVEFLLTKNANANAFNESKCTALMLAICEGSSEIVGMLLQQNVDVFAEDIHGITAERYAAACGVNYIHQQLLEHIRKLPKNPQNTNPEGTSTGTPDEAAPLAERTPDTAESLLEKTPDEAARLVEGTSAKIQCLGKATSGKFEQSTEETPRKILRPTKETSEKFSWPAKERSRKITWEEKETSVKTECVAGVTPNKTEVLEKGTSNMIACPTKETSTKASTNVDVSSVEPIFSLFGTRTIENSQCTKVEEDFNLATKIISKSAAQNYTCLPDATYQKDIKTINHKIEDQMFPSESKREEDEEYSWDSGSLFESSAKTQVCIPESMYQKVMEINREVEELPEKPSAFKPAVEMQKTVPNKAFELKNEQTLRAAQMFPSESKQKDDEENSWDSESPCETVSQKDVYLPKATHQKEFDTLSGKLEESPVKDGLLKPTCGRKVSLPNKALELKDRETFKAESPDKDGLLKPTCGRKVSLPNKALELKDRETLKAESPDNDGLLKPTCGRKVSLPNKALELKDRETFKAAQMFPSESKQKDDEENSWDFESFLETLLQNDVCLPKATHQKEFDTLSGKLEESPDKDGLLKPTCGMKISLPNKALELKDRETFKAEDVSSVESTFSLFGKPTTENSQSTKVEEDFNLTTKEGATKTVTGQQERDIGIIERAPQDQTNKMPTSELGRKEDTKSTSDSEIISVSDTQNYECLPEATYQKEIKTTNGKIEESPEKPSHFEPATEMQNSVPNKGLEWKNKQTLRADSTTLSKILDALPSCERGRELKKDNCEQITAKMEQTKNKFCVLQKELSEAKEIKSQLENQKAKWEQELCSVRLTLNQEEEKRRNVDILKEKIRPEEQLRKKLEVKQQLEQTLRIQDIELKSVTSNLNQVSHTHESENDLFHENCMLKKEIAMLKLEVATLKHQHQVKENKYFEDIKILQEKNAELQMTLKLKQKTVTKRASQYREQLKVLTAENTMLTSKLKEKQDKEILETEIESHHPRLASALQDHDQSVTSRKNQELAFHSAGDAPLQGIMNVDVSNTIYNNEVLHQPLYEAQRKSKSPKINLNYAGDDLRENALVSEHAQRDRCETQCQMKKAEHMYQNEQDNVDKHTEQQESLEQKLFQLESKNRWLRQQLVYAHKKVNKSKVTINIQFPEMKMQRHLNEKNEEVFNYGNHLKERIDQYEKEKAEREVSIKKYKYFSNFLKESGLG

Sequence of UniProt Q9BXX3 (Q9BXX3 whole entry, the tested form may be a part): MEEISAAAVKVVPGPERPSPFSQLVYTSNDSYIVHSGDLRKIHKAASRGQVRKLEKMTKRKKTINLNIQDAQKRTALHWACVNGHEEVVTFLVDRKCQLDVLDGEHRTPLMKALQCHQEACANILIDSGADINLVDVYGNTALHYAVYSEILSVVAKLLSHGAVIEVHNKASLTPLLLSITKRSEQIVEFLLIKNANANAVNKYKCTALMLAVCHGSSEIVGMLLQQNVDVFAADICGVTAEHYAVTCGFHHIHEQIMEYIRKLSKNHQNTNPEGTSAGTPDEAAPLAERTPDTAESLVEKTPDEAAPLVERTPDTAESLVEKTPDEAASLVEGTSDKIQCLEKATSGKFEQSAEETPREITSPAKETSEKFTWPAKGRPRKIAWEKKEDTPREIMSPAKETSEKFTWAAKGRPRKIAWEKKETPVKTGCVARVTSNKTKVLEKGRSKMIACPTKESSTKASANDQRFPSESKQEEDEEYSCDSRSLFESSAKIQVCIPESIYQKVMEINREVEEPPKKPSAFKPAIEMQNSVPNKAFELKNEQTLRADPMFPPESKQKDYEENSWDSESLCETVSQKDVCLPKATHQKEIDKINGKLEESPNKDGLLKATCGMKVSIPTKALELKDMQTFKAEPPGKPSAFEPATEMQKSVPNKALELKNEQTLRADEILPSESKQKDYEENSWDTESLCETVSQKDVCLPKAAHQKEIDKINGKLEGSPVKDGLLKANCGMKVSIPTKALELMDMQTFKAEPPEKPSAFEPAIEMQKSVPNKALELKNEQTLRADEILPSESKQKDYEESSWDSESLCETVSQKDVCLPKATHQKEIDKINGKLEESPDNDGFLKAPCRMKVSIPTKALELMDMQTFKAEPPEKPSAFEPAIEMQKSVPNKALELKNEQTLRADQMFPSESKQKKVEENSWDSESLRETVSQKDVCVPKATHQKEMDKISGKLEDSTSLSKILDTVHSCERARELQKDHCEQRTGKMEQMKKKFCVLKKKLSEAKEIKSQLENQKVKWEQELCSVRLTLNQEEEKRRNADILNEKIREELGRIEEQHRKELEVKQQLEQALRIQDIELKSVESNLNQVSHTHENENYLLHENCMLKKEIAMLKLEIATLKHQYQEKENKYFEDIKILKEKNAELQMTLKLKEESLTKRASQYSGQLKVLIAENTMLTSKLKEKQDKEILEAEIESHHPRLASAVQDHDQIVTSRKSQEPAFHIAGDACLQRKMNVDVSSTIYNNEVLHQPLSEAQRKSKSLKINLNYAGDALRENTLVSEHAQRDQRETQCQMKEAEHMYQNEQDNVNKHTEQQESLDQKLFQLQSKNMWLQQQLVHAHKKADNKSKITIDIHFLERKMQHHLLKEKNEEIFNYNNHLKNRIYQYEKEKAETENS

MFI [1]: 74 | MFI [2]: 90
Substance: isotype control (Example 1, flow cytometry with full-length murine antibodies) (antibody)
